Assay results reported in US20060239998A1.
One block for each binder: values may come before it.

Tests used:
[1] = molecular target: polyclonal antibodies of the patient from whom BO2C11 was derived; test: cell-based or functional assay
[2] = molecular target: Factor VIII (human recombinant FVIII) (human) (UniProt P00451); test: cell-based or functional assay
[3] = molecular target: human monoclonal antibody BO2C11, FVIII-specific IgG4kappa inhibitory antibody against the C2 domain; test: cell-based or functional assay
[4] = molecular target: human monoclonal antibody BO2C11, FVIII-specific IgG4kappa inhibitory antibody against the C2 domain; test: surface plasmon resonance
[5] = molecular target: BO2C11 surface antibody on the BO2C11 lymphoblastoid B-cell line; test: flow cytometry on the BO2C11 lymphoblastoid cell line, 1 or 10 µg/ml antibody, anti-mouse IgG-FITC
[6] = molecular target: polyclonal antibodies of 6 unrelated patients with haemophilia A and inhibitor towards the C2 domain; test: immunoprecipitation of radiolabelled C2 domain with patient polyclonal antibodies and protein A Sepharose; Ab 14C12 added at increasing concentration

Factor VIII (human recombinant FVIII) (human), sequence (P00451 20-2351): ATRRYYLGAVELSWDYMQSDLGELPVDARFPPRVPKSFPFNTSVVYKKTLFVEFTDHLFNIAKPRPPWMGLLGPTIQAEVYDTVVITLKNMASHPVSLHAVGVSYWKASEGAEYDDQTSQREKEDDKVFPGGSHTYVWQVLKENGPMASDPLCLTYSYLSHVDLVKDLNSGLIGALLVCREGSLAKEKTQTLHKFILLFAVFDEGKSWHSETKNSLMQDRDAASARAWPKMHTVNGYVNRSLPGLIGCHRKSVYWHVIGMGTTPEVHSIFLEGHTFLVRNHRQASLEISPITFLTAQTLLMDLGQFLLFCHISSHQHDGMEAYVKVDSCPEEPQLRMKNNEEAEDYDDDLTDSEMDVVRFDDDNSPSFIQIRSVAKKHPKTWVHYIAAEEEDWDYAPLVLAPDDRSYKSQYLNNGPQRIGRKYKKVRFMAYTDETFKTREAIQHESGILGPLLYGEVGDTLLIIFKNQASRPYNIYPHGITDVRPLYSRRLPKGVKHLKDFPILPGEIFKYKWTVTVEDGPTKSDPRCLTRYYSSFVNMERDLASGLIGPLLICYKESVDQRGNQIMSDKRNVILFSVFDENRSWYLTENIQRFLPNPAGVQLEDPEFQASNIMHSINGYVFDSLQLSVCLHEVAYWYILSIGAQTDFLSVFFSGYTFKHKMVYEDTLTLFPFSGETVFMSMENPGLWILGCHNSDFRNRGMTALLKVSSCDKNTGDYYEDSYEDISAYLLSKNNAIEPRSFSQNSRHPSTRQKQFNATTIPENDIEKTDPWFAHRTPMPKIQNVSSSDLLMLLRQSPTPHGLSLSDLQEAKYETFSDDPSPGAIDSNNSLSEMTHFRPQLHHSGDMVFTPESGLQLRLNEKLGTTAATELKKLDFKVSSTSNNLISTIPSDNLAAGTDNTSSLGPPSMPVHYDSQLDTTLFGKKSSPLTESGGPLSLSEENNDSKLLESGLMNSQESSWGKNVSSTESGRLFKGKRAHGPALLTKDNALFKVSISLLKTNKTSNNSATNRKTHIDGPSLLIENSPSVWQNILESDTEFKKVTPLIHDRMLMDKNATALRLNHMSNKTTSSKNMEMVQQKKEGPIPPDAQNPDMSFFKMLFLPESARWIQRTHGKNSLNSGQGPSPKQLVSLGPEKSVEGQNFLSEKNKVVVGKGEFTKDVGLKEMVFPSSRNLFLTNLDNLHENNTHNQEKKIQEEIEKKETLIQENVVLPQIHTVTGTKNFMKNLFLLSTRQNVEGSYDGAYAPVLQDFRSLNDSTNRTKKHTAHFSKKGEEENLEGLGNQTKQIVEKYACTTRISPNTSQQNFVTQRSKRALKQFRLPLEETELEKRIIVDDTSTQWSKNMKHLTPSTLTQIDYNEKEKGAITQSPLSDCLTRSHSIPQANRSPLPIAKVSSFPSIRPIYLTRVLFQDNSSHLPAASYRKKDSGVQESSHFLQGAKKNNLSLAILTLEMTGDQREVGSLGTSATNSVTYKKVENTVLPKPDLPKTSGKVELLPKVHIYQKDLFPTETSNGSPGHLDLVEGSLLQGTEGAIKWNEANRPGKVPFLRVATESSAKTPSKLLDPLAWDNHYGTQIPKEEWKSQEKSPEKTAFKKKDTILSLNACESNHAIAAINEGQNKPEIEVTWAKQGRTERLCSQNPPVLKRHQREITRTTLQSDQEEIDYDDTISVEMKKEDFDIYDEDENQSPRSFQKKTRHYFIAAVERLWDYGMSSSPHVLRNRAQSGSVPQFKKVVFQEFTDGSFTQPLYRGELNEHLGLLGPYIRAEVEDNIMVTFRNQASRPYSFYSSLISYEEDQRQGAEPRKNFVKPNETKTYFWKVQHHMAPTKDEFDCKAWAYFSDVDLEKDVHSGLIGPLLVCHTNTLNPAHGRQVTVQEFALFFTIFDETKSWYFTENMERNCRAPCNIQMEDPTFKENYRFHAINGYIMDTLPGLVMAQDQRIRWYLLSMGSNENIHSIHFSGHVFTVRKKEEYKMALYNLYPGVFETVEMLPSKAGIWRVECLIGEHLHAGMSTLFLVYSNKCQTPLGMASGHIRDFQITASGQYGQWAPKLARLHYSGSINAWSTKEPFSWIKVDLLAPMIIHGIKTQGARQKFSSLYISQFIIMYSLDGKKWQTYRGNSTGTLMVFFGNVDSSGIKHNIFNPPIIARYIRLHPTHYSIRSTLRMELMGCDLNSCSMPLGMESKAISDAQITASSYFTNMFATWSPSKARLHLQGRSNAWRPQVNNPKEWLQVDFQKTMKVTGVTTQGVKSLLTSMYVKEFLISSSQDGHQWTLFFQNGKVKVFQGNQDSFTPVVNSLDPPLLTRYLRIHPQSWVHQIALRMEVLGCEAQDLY

neutralisation of polyclonal anti-FVIII antibodies (chromogenic assay) (% neutralisation) [1]: < 60
B1: anti-idiotypic antibody Ab 14C12 obtained from cell line 14C12 (LMBP 5878CB) (antibody, V domains shown)
VH: EVQLQQSGPELVKPGASVKLSCKASGYTFTSSVMHWLKQKSGQGLEWIGYINPYNDGTKYNEKFTAKATLTSDKSSSTVYMELSGLTSEDFAVYYCARSGGLLRGYWYFDVWGAGTTVTVSSAKTTAPSVYPLVPGC
VL: DLVLTQSPATLSVTPGDSVSLSCRASQDITNTLHWYHQKSHESPRLLIKYVSQSISGIPSRFSGSGSGTVFTLSINSVETEDFGVYFCQQSTSWPYTFGGGTKLEIKRADAAPTVSIFPPSSE

inhibition of FVIII procoagulant activity in FVIII-/- mice (% inhibition at 0.5 µg BO2C11) [2]: 98
inhibition of FVIII-dependent substrate conversion (Faktor VIII chromogen test) (% inhibition at 0.1 µg/ml BO2C11) [2]: 100
B2: human monoclonal antibody BO2C11, FVIII-specific IgG4kappa inhibitory antibody against the C2 domain (antibody, from another filing, V domains shown)
VH: QVQLVQSGAEVKKPGASVKVSCKVSGYTLTELPVHWVRQAPGKGLEWVGSFDPESGESIYAREFQGSVTMTADTSTDIAYMELSSLRSDDTAVYYCAVPDPDAFDIWGQGTMVTVSS
VL: EIALTQSPGTLSLSPGERATLSCRASQSFSSSYLAWYQQKPGQAPRLLIYGASTRATGIPDRFSGSGSGTDFTLTISRLEPEDFAVYYCQKYGTSAITFGQGTRLEIK

in vivo neutralisation of BO2C11-mediated FVIII inhibition in FVIII-/- mice (% neutralisation at equimolar ratio) [3]: 50
neutralisation of BO2C11 inhibitory capacity (chromogenic assay) ([3]; scale: % neutralisation at a '11' molar ratio): 50
in vivo neutralisation of BO2C11-mediated FVIII inhibition in FVIII-/- mice ([3]; scale: molar excess of Ab 14C12 over BO2C11 for full neutralisation): 3.5
koff [4]: 1e-05 s⁻¹
percent of cells positive [5]: 68%
percent neutralisation [6]: 50%
B3: anti-idiotypic antibody Ab 14C12 obtained from cell line 14C12 (LMBP 5878CB) (antibody, V domains shown)
VH: EVQLQQSGPELVKPGASVKLSCKASGYTFTSSVMHWLKQKSGQGLEWIGYINPYNDGTKYNEKFTAKATLTSDKSSSTVYMELSGLTSEDFAVYYCARSGGLLRGYWYFDVWGAGTTVTVSS
VL: DLVLTQSPATLSVTPGDSVSLSCRASQDITNTLHWYHQKSHESPRLLIKYVSQSISGIPSRFSGSGSGTVFTLSINSVETEDFGVYFCQQSTSWPYTFGGGTKLEIKR
